Experiments:
[1] = biological target: wild type mononucleosome (recombinant Xenopus laevis histone octamer on 601 DNA) (Xenopus laevis)
[2] = biological target: APM (acidic patch mutant) mononucleosome, H2A E61A, E64A, D90A, D92A (Xenopus laevis)
[3] = biological target: wild type mononucleosome (recombinant Xenopus laevis histone octamer on 601 DNA) (Xenopus laevis); remark: listed apart in the source

Substance	reduction of the rate constant of remodeling of WT nucleosomes by sub-saturating SNF2h, dose-dependent, up to 50 µM LANA peptide; the pair that is blocked: SNF2h and the nucleosome [1] [fold]	apparent Km (KM^app) of the gel remodeling rate against SNF2h concentration, 0/60 APM nucleosomes, cooperative binding model [2] [nM]	apparent Km (KM^app) of the gel remodeling rate against SNF2h concentration, 0/60 WT nucleosomes, cooperative binding model [3] [nM]
LANA peptide (from the latency associated nuclear antigen of Kaposi's sarcoma-associated herpesvirus)	200	–	–
SNF2h (human ISWI ATPase), purified from E. coli (from UniProt O60264 1-1052) (enzyme)	–	280	61
